Target: Mycobacterium tuberculosis chorismate mutase variant V55D (Mycobacterium tuberculosis)
Assay: crystal structure; sitting drop vapor diffusion, 20 °C; protein 44 mg/mL in 20 mM Bis Tris propane, pH 7.5, 150 mM NaCl; reservoir 0.2 M zinc acetate dihydrate, 10% w/v PEG 3000, 0.1 M sodium acetate, pH 4.5; space group P22(1)2(1); 2.1 Å

Mycobacterium tuberculosis chorismate mutase variant V55D (enzyme)
stoichiometry N: 2

From paper PMC9910054
